# B1: HmAb64 (antibody, V domains shown)
# VH: QVQLVQSGAEVKKPGASVKVSCKASGYTFTSYDITWVRQAPGQGLEWMGWISAYNGDTNYAQRLQGRVTMTTDTSTSTAYMELRSLRSDDTAVYYCARAKHTVLVTAMRWFDPWGQGTLVTVSS
# VL: DIQMTQSPSSLSASVGDRVTITCRASQSISNYLNWYQQKPGKAPKLLISATSSLQSGVPSRFSGSGSGTDFTLTISSLQPDDFATYYCQQSYSTPWTFGQGTKLEIK
# Legend:
# Assay in all cases: BLI
# [1] = target: gp120 AE (clade E, 93TH976.17) (HIV-1 isolate 93TH976.17)
# [2] = target: gp120 B (clade B, 92US715.6) (HIV-1 isolate 92US715.6)
# [3] = target: T1, gp120 Czm (clade C, 96ZM652) (HIV-1 isolate 96ZM652)
# Bal gp120 [4] = target: Bal gp120 (HIV-1 isolate Bal)
# [5] = target: T2, gp120 A2 (clade A, 92UG037.8) (HIV-1 isolate 92UG037.8)
# [6] = target: T1, gp120 Czm (clade C, 96ZM652); remark: listed apart in the source
# Bal gp120 [7] = target: Bal gp120 (HIV-1 isolate Bal); remark: listed apart in the source
# [8] = target: T2, gp120 A2 (clade A, 92UG037.8); remark: listed apart in the source
binder,measurement,setting,value
B1,Kd,[1],20 nM
same,koff,[1],0.000423 s⁻¹
same,Kd,[2],22.9 nM
same,koff,[2],0.000684 s⁻¹
same,koff,[3],0.000454 s⁻¹
same,koff,Bal gp120 [4],0.000459 s⁻¹
same,koff,[5],0.000641 s⁻¹
same,Kd,[6],22.5 nM
same,Kd,Bal gp120 [7],16 nM
same,Kd,[8],39.4 nM
